B1: Core αB (cABC, residues 68–153) (domain or fragment, human, UniProt P02511 68-153, looked up)
chain: MRLEKDRFSVNLDVKHFSPEELKVKVLGDVIEVHGKHEERQDEHGFISREFHRKYRIPADVDPLTITSSLSSDGVLTVNGPRKQVS
notes: αB-crystallin, human, α-crystallin core domain, residues 68-153; also called αB core; core of αB
B2: Full-length αB-crystallin (WT) (natural protein, human, UniProt P02511 1-175, looked up)
chain: MDIAIHHPWIRRPFFPFHSPSRLFDQFFGEHLLESDLFPTSTSLSPFYLRPPSFLRAPSWFDTGLSEMRLEKDRFSVNLDVKHFSPEELKVKVLGDVIEVHGKHEERQDEHGFISREFHRKYRIPADVDPLTITSSLSSDGVLTVNGPRKQVSGPERTIPITREEKPAVTAAPKK
notes: αB-crystallin, human, full length; Polydisperse oligomers; also called WT αB
B3: Full-length αB-crystallin D109A (isoAsp-mimic) (natural protein, human, UniProt P02511 1-175, looked up)
chain: B2 chain with D109A
notes: αB-crystallin, human, full length, with D109A; source: expressed and purified in the same manner as WT
B4: Full-length αB-crystallin S59D (phosphomimic) (natural protein, human, UniProt P02511 1-175, looked up)
chain: B2 chain with S59D
notes: αB-crystallin, human, full length, with S59D; also called αBS59D; source: expressed and purified in the same manner as WT

The target of series [1] is B1. Description: native MS; competition: core domain 10 μM mixed with an L-Ser and a D-Ser peptide (one with added glycines), 40 μM each (4:1 peptide/domain), 200 mM ammonium acetate pH 6.9; monomeric species, 5+, 6+, 7+ charge states quantified. As to conditions: both partners purified.
Series [2] has as its target core αA (cAAC, residues 59–153) (human, UniProt P02489 59-153, some population of BME-adducted protein). The series is described as above. The settings on record: both partners purified.
Series [3] deals with the molecule itself. In words: native MS; core domains analysed alone, 10 μM, 200 mM ammonium acetate pH 6.9, Synapt G1.
The target of series [4] is core αA (cAAC, residues 59-153) (human, UniProt P02489 59-153, some population of BME-adducted protein). In words: native MS; competition: 10 μM core domain with 40 μM each of L-Ser and D-Ser peptide, 200 mM ammonium acetate pH 6.9; monomeric species, 5+, 6+ and 7+ charge states; approximate dissociation constants calculated from abundance ratios (El-Hawiet et al.). The settings on record: both partners purified.
Chain of core αA (cAAC, residues 59-153) (P02489 59-153): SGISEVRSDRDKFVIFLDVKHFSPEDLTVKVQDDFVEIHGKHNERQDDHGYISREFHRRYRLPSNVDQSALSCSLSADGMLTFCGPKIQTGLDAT

Series [5] concerns the molecule itself. In words: native MS; full-length αB and mutants, 15 μM by monomer, 200 mM ammonium acetate pH 6.9, QExactive Orbitrap; intact spectra and CID with charge deconvolution (UniDec) to oligomeric distributions.

Data on seven molecules can be found in publication PMC6514633, “Structural and functional consequences of age-related isomerization in α-crystallins” (The Journal of Biological Chemistry, 2019).

Changes are numbered by the printed parent chain. Names and notes keep the numbering of the source. Where no end group is shown, it is not given here. [ ]: non-standard residue; d: D form.

Chain of core αA (cAAC, residues 59–153) (P02489 59-153): as above

Consider GERAIPVSREG [G-Ct-G peptide GERAIPVSREG with L-Ser (appended-glycine L-isomer)], for which the binding result in series [1] and in series [2] was “binds” each time.

As to B1, in series [3], the stoichiometry N (in general, the number of molecules, sites or subunits per partner or assembly) was found to be 2. For ERAIPV[dS]RE [C-terminal palindromic peptide of αA-crystallin with D-Ser-162 (D-peptide)], in series [4], the Kd – broadly, the constant that tells how readily two partners part at equilibrium – was 660 µM. As to ERAIPVSRE [Ct peptide ERAIPVSRE with L-Ser (canonical all L-amino acid form)], the Kd is 115 µM in series [1] and 48 µM in series [2]. As for B2, the binding result in series [5] is recorded as “binds”. Same read-out and setting: for B3 the value was “binds”. With B4, the “stoichiometry N” value in series [5] is about 18.
